Reference: patent US12576138B2, “Compounds and methods for the immobilization of myostatin-inhibitors on the extracellular matrix by transglutaminase” (JULIUS-MAXIMILIANS-UNIVERSITÄT WÜRZBURG, priority 2018, dated 2026)
One block for each substance: values may come before it.

Key:
mouse myoblast cells = experiment: Differentiation of myoblasts in presence of myostatin and MI bound on ECM; format: cell-based; conditions: MI immobilized on ECM
Excerpt: (§1) MI-D chains were immobilized on ECM with high efficacy (FIG. 4A) and the co-localization with fibronectin confirmed using confocal laser scanning microscopy (FIG. 4B). Bioactivity of immobilized MI was confirmed by capturing myostatin using ELISA and consequently the restoration of mouse myoblast cells to differentiate in presence of myostatin (FIG. 4C, D).
(§2) FIG. 4: Immobilization of the MI-D chain on decellularized ECM. (A) Coupling efficacy in presence and absence of TG. (B) Confocal Laser Scanning Microscopy images of MI labeled with Atto594-maleimide on ECM in presence (panels A) and absence (panels B) of FXIIIa. […] (C) Amount of free myostatin after exposure to ECM with immobilized MI under different conditions measured by ELISA. (D) Bioactivity of MI immobilized on ECM determined by differentiation of myoblasts in presence of myostatin-containing medium and MI bound on ECM in presence or absence of TG.

fibronectin = molecular target: T1, fibronectin (Mus musculus, UniProt P11276); experiment: FXIIIa-mediated immobilization of MI-D chain on decellularized cell-derived ECM; format: biochemical
T1 construct: The ECM was produced by NIH3T3 fibroblasts and on day 6 decellularized; endogenous in cells; host or cells: NIH3T3 fibroblasts (decellularized ECM)
Excerpt: As proof of concept, the MI with TG tag (“MI-D chain”) was immobilized onto cell derived, isolated extracellular matrix (ECM). The ECM was produced by NIH3T3 fibroblasts and on day 6 decellularized and washed to remove cell debris and adsorbed proteins.
as §1, §2

myostatin [1] = molecular target: T2, myostatin (Homo sapiens, UniProt O14793); experiment: Capture of myostatin by ECM-immobilized MI, measured by ELISA; format: binding
T2 sequence (O14793 267-375): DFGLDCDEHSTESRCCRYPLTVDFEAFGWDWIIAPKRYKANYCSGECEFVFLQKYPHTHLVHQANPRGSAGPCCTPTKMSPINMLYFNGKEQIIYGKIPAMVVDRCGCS
Excerpt: as §1, §2

[2] = molecular target: glutamine substrate derived from α-2 plasmin inhibitor (Homo sapiens, UniProt P08697); experiment: Transglutaminase coupling of the isolated IGF-I D chain to a glutamine substrate; format: biochemical
Experimental: Starting off by examination of the specificity and efficacy of the IGF-I D chain, the isolated sequence (PLKPAKSA) was coupled to a glutamine substrate derived from α-2 plasmin inhibitor, achieving >90% conversion within less than 10 minutes.

myostatin [3] = molecular target: T2, myostatin; experiment: Bioactivity of released MI: myoblast proliferation in presence of myostatin; format: cell-based; conditions: after release from ECM triggered by MMPs
Excerpt: If a flaring inflammation in the wounded tissue occurs, accompanied by invasion of macrophages and release of MMPs, the inter-positioned PCL is cleaved, releasing the MI and instantly inhibiting the flaring inflammation and preventing apoptosis of surrounding cartilage and muscle cells.
FIG. 5: (A) Release kinetics of MI modified with a PCL—responding to elevated MMP levels—and the D chain for immobilization on ECM (“MI1”) in comparison to MI modified with the D chain at the C-terminus for direct immobilization on ECM (“MI2”). The MI was labelled with a fluorescent dye before immobilization on the ECM and the release of MI exposed to MMP-1, -8, -9 and -13 for different periods of time was analyzed by HPLC with fluorescence detection. (B) Bioactivity of released MI determined by myoblast proliferation in presence of myostatin and MI after release from ECM triggered by MMPs.

T1 sequence (P11276 33-2477): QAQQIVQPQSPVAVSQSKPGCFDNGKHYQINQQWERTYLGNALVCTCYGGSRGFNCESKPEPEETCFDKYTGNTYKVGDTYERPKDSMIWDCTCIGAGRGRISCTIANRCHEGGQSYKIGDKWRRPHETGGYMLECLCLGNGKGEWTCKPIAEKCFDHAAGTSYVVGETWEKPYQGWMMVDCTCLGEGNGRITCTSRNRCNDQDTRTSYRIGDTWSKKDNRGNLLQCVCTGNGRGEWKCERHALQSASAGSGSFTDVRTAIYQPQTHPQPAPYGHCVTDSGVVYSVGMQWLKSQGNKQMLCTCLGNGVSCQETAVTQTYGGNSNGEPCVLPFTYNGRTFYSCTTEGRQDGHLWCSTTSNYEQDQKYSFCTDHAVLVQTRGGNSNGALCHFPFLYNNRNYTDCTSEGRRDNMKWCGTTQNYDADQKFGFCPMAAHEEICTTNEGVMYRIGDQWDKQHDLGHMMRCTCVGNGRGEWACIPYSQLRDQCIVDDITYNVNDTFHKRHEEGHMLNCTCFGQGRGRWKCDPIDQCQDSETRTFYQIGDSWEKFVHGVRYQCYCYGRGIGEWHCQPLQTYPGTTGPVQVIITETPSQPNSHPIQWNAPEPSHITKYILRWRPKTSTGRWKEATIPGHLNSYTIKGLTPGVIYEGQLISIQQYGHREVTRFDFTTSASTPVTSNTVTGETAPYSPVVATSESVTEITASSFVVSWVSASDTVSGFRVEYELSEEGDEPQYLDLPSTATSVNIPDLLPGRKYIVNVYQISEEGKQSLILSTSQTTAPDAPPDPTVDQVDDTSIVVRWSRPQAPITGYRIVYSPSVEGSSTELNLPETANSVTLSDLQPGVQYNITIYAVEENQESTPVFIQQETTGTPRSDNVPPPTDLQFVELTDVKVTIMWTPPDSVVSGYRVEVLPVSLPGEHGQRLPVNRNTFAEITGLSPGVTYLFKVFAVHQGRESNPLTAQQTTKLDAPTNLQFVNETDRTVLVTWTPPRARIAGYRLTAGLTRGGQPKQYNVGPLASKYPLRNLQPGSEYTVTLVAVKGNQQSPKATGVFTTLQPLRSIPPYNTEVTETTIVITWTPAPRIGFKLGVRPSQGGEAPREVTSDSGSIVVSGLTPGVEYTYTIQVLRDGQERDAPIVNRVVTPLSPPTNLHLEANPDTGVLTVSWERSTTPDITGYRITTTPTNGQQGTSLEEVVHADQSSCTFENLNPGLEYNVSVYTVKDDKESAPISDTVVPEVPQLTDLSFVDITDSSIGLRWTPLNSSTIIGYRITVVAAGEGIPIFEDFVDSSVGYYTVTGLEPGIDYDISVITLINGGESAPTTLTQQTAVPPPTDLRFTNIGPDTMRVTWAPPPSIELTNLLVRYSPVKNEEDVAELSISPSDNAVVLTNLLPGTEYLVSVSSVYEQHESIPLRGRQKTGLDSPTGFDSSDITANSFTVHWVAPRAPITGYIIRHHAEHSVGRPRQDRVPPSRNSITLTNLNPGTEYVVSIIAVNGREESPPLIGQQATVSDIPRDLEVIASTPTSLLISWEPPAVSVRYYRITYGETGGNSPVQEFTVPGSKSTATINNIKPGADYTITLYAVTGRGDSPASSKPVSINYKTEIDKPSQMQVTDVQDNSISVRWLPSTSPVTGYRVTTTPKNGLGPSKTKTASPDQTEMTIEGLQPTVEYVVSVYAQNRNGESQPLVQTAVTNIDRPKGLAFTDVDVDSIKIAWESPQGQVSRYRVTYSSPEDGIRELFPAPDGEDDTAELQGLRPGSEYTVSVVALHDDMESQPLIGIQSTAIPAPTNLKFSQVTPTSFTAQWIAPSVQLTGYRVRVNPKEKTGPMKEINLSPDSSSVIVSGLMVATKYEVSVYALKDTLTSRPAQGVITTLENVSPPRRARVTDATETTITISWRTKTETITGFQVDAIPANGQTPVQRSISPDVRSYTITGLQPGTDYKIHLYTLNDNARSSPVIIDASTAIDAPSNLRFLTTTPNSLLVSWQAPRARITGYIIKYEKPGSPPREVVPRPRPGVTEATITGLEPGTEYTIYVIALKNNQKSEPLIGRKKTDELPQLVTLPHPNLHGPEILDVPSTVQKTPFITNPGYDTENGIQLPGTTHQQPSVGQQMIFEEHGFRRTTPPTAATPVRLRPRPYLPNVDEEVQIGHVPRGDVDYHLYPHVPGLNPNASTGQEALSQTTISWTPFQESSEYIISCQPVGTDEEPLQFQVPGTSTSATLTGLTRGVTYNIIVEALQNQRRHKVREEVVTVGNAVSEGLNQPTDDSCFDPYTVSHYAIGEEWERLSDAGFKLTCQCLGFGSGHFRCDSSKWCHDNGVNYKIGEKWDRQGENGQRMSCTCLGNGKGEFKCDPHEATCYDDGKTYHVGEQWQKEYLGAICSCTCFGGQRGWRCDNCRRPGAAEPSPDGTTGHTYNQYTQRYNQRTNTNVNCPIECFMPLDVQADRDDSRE

- co-localization with fibronectin (fibronectin; confocal laser scanning microscopy): confirmed
- efficacy of immobilization on ECM (fibronectin; decellularized ECM from NIH3T3 fibroblasts, FXIIIa): high efficacy
- bioactivity of immobilized MI by capturing myostatin (myostatin [1]; ELISA, MI immobilized on ECM): confirmed
- capacity to bind and inhibit myostatin after immobilization on N-terminus of fibronectin (myostatin [1]; immobilized on ECM): without impairment
Substance: MI-D chain: myostatin inhibitor with the IGF-I D chain attached at the C-terminus for direct immobilization on ECM (VATQGQCTRWPWMCPPQGWGPLKPAKSA)
- differentiation of mouse myoblast cells in presence of myostatin (mouse myoblast cells): restoration

- time to reach >90% conversion ([2]; coupling to glutamine substrate derived from α-2 plasmin inhibitor): less than 10 minutes
- conversion (coupling to glutamine substrate) ([2]; within less than 10 minutes): > 90%
Substance: PLKPAKSA (listed as Homo sapiens) [IGF-I D chain]

- bioactivity of released MI in terms of myostatin inhibition (myostatin [3]): bioactive
Substance: VATQGQCTRWPWMCPPQGWG (listed as Homo sapiens) [MI, in b165 the MI released from ECM by MMPs]
